Results as given in the RNAGym collection of RNA variant scans (doi:10.7554/elife.80360).

B1: HDV Ribozyme (parent)
chain: GGCCGGCAUGGUCCCAGCCUCCUCGCUGGCGCCGGCUGGGCAACAUUCCGAGGGGACCGUCCCCUCGGUAAUGGCGAAUGGGACCCA

Variants of: B1
Assay: self-cleavage, relative activity (ratio to wild type); higher = more cleavage; co-transcriptional

First: GGCCGGCAUGGUCCCAGCCUCCUCGCUGGCGCCGGCUGGGCAACAUUCCGAGGGGACUGUCCCCUCGGCAAUGGCGAAUGGGACCCA [C58U U69C]
Second: GGCCGGCAUGGUCCCAGCCUCCUCGCUGGCGCCGGCUGGGCAACAUUCCGAGGGGACGGUCCCCUCAGUAAUGGCGAAUGGGACCCA [C58G G67A]
The self-cleavage of the first is lower: 0.95 for the first, 1.28 for the second.

Compared with GGCCGGCAUGGUCCCAGCCUCCUCGCUGGCGCCGGCUGGGCAACAUUCCGAGGGGACUGUCCCCUCGGUAAUGGCGAAUGGGACACA [C58U C85A], GGCCGGCAUGGUCCCAGCCUCCUCGCUGGCGCCGGCUGGGCAACAUUCCGAGGGGACCAUCCCCUCGGUAAUGGCGAAUGAGACCCA [G59A G81A] is lower in self-cleavage: 1.13 for the first, 0.472 for the second.

Going from GGCCGGCAUGGUCCCAGCCUCCUCGCUGGCGCCGGCUGGGCAACAUUCCGAGGGGACCAUCCCCUCGGUAAUGGCGAAAGGGACCCA [G59A U79A] to GGCCGGCAUGGUCCCAGCCUCCUCGCUGGCGCCGGCUGGGCAACAUUCCGAGGGGACGGGCCCCUCGGUAAUGGCGAAUGGGACCCA [C58G U60G], the self-cleavage falls from 0.884 to 0.532.

Going from GGCCGGCAUGGUCCCAGCCUCCUCGCUGGCGCCGGCUGGGCAACAUUCCGAGGGGACCAUCCCCUCCGUAAUGGCGAAUGGGACCCA [G59A G67C] to GGCCGGCAUGGUCCCAGCCUCCUCGCUGGCGCCGGCUGGGCAACAUUCCGAGGGGACUGUCCCGUCGGUAAUGGCGAAUGGGACCCA [C58U C64G], the self-cleavage falls from 1.05 to 0.895.

Going from GGCCGGCAUGGUCCCAGCCUCCUCGCUGGCGCCGGCUGGGCAACAUUCCGAGGGGACCAUCCCCUCGGUAAUGGCGAAUGGGAGCCA [G59A C84G] to GGCCGGCAUGGUCCCAGCCUCCUCGCUGGCGCCGGCUGGGCAACAUUCCGAGGGGACUGUCCCCUCGGUAAUGGCGAAUGGUACCCA [C58U G82U], the self-cleavage falls from 0.597 to 0.34.

Compared with GGCCGGCAUGGUCCCAGCCUCCUCGCUGGCGCCGGCUGGGCAACAUUCCGAGGGGACUGUCCCCUCGGUAAUGGCGAAUAGGACCCA [C58U G80A], GGCCGGCAUGGUCCCAGCCUCCUCGCUGGCGCCGGCUGGGCAACAUUCCGAGGGGACUGUCCCCUCGGUAAUGGCGAAUCGGACCCA [C58U G80C] is lower in self-cleavage: 0.372 for the first, 0.203 for the second.

Compared with GGCCGGCAUGGUCCCAGCCUCCUCGCUGGCGCCGGCUGGGCAACAUUCCGAGGGGACGGUCCCCUCGGUAAUGGGGAAUGGGACCCA [C58G C75G], GGCCGGCAUGGUCCCAGCCUCCUCGCUGGCGCCGGCUGGGCAACAUUCCGAGGGGACGGUCCCCUCGGUAAUUGCGAAUGGGACCCA [C58G G73U] is lower in self-cleavage: 0.415 for the first, 0.217 for the second.

First: GGCCGGCAUGGUCCCAGCCUCCUCGCUGGCGCCGGCUGGGCAACAUUCCGAGGGGACUGUCCUCUCGGUAAUGGCGAAUGGGACCCA [C58U C63U]
Second: GGCCGGCAUGGUCCCAGCCUCCUCGCUGGCGCCGGCUGGGCAACAUUCCGAGGGGACGGUCCCCUCGGUAAUGGCGAAUGGGACCAA [C58G C86A]
The self-cleavage of the first is higher: 1.04 for the first, 0.727 for the second.

Going from GGCCGGCAUGGUCCCAGCCUCCUCGCUGGCGCCGGCUGGGCAACAUUCCGAGGGGACCAUCUCCUCGGUAAUGGCGAAUGGGACCCA [G59A C62U] to GGCCGGCAUGGUCCCAGCCUCCUCGCUGGCGCCGGCUGGGCAACAUUCCGAGGGGACCAUCCCCUCGGUAAUGGCGUAUGGGACCCA [G59A A77U], the self-cleavage falls from 1.22 to 0.574.

Going from GGCCGGCAUGGUCCCAGCCUCCUCGCUGGCGCCGGCUGGGCAACAUUCCGAGGGGACCAUCCGCUCGGUAAUGGCGAAUGGGACCCA [G59A C63G] to GGCCGGCAUGGUCCCAGCCUCCUCGCUGGCGCCGGCUGGGCAACAUUCCGAGGGGACCAUCCUCUCGGUAAUGGCGAAUGGGACCCA [G59A C63U], the self-cleavage rises from 0.805 to 1.13.

Compared with GGCCGGCAUGGUCCCAGCCUCCUCGCUGGCGCCGGCUGGGCAACAUUCCGAGGGGACCAUCCCCUCGGUAAUGGCGAAUGGUACCCA [G59A G82U], GGCCGGCAUGGUCCCAGCCUCCUCGCUGGCGCCGGCUGGGCAACAUUCCGAGGGGACCAUCCCCUCGGGAAUGGCGAAUGGGACCCA [G59A U69G] is higher in self-cleavage: 0.467 for the first, 1 for the second.

Going from GGCCGGCAUGGUCCCAGCCUCCUCGCUGGCGCCGGCUGGGCAACAUUCCGAGGGGACCAUCCCCUCGGAAAUGGCGAAUGGGACCCA [G59A U69A] to GGCCGGCAUGGUCCCAGCCUCCUCGCUGGCGCCGGCUGGGCAACAUUCCGAGGGGACCAUCCCCUCGGUAGUGGCGAAUGGGACCCA [G59A A71G], the self-cleavage falls from 1.08 to 0.984.

Going from GGCCGGCAUGGUCCCAGCCUCCUCGCUGGCGCCGGCUGGGCAACAUUCCGAGGGGACCAUCCCCUCGGUAUUGGCGAAUGGGACCCA [G59A A71U] to GGCCGGCAUGGUCCCAGCCUCCUCGCUGGCGCCGGCUGGGCAACAUUCCGAGGGGACGUUCCCCUCGGUAAUGGCGAAUGGGACCCA [C58G G59U], the self-cleavage rises from 0.929 to 0.946.

Compared with GGCCGGCAUGGUCCCAGCCUCCUCGCUGGCGCCGGCUGGGCAACAUUCCGAGGGGACGAUCCCCUCGGUAAUGGCGAAUGGGACCCA [C58G G59A], GGCCGGCAUGGUCCCAGCCUCCUCGCUGGCGCCGGCUGGGCAACAUUCCGAGGGGACGCUCCCCUCGGUAAUGGCGAAUGGGACCCA [C58G G59C] is lower in self-cleavage: 1.1 for the first, 1.03 for the second.

Compared with GGCCGGCAUGGUCCCAGCCUCCUCGCUGGCGCCGGCUGGGCAACAUUCCGAGGGGACCAUCCCCUCGGUAACGGCGAAUGGGACCCA [G59A U72C], GGCCGGCAUGGUCCCAGCCUCCUCGCUGGCGCCGGCUGGGCAACAUUCCGAGGGGACUGUCCCCUGGGUAAUGGCGAAUGGGACCCA [C58U C66G] is higher in self-cleavage: 0.607 for the first, 0.931 for the second.

Going from GGCCGGCAUGGUCCCAGCCUCCUCGCUGGCGCCGGCUGGGCAACAUUCCGAGGGGACUGUCCCCUCGGUAAUUGCGAAUGGGACCCA [C58U G73U] to GGCCGGCAUGGUCCCAGCCUCCUCGCUGGCGCCGGCUGGGCAACAUUCCGAGGGGACUGUCCCCUCGGUAAUCGCGAAUGGGACCCA [C58U G73C], the self-cleavage rises from 0.343 to 0.608.
